Laboratory results reported in patent US10428140B2, “Anti-EphA4 antibody” (EISAI R&D MANAGEMENT CO., LTD., priority 2015, dated 2019).

T1: human EphA1 (Homo sapiens, UniProt P21709)
T1 construct: a protein of the extracellular region of each human Eph receptor fused with the SEAP protein and the His tag; made in house; host or cells: Expi293F cells (culture supernatant)
T1 sequence (P21709 26-547 limits assumed): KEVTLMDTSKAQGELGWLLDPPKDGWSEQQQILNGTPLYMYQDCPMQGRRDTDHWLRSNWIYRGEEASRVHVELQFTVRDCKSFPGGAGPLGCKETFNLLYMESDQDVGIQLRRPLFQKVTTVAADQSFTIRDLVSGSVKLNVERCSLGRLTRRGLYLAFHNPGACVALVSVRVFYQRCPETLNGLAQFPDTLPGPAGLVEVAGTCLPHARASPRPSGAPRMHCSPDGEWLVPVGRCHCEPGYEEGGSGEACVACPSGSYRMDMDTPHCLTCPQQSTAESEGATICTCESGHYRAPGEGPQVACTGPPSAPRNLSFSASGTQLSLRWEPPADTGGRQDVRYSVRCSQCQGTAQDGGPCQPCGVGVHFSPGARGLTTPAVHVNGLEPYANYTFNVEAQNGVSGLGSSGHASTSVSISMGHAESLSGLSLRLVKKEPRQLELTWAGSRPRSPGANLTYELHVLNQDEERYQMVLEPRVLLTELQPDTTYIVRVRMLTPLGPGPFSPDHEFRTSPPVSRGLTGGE

T2: human EphB2 (Homo sapiens, UniProt P29323)
T2 construct: a protein of the extracellular region of each human Eph receptor fused with the SEAP protein and the His tag; made in house; host or cells: Expi293F cells
T2 sequence (P29323 19-543 limits assumed): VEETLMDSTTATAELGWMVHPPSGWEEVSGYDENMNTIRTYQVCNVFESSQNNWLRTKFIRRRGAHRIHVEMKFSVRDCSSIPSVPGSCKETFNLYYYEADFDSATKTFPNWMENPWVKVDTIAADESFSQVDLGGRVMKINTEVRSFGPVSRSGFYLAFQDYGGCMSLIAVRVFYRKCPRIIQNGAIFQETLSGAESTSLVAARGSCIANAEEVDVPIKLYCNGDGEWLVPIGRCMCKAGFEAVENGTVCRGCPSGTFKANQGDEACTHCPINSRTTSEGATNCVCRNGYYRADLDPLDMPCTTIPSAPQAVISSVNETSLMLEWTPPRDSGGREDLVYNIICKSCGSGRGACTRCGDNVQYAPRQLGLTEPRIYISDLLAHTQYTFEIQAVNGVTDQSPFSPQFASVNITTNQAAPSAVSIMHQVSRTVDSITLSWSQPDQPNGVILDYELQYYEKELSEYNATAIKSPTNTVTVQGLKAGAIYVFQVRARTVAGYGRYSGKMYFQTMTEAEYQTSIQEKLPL

T3: human EphB1 (Homo sapiens, UniProt P54762)
T3 construct: a protein of the extracellular region of each human Eph receptor fused with the SEAP protein and the His tag; made in house; host or cells: Expi293F cells (culture supernatant)
T3 sequence (P54762 18-540 limits assumed): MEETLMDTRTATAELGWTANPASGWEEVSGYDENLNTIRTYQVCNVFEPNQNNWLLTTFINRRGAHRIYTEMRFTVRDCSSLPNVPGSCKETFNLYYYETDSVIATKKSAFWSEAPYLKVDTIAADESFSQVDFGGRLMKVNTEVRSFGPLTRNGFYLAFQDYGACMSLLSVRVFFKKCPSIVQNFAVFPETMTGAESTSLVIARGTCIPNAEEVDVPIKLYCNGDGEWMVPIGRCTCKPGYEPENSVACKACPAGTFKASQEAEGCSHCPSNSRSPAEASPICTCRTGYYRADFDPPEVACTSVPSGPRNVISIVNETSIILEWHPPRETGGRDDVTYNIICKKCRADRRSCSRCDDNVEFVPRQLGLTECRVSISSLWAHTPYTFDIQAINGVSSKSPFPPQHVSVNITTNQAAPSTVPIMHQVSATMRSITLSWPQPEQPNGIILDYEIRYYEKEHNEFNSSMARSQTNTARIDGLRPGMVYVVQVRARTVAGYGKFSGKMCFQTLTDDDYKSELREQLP


How the values were obtained:
Experiment in all cases: Selectivity ELISA of humanized antibodies for human Eph receptor
Assay type in all cases: binding
[1] = molecular target: T1, human EphA1; details: coated protein 1 nM
In short: (§1)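 Human Eph ECD-SEAP-His fusions, harvested after 5 days of Expi293F expression, are captured on anti-His-coated wells (1 nM final). Bound humanized antibody is detected with HRP anti-IgG and TMB at 450 nm.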

[2] = molecular target: T2, human EphB2; details: coated protein 1 nM
In short: as §1

[3] = molecular target: T3, human EphB1; details: coated protein 1 nM
In short: as §1

[4] = molecular target: T4, human EphA4 (Homo sapiens, UniProt P54764); details: coated protein 1 nM; reference set to 100%
T4 construct: made in house; not restated for the human SEAP-His protein
In short: as §1

T4 sequence (P54764 20-547): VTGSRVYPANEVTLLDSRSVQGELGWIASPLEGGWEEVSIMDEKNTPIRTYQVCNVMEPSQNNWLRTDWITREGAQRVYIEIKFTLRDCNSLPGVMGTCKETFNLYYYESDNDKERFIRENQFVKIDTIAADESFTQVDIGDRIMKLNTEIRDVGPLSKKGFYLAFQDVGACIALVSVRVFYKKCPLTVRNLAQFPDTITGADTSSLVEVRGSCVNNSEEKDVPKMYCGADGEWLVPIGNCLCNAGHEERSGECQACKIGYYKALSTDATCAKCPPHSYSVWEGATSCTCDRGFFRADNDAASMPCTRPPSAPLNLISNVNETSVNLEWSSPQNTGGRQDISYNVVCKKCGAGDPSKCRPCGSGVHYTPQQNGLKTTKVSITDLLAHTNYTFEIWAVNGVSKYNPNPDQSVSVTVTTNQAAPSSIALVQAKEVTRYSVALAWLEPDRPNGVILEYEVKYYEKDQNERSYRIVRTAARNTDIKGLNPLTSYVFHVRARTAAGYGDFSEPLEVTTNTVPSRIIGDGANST

Molecule	hEphA1-SEAP-: absorbance at 450 nm, percentage with respect to hEphA4-SEAP-His as 100% [1] [%]	hEphB2-SEAP-: absorbance at 450 nm, percentage with respect to hEphA4-SEAP-His as 100% [2] [%]	hEphB1-SEAP-: absorbance at 450 nm, percentage with respect to hEphA4-SEAP-His as 100% [3] [%]	hEphA4-SEAP-: absorbance at 450 nm, percentage with respect to hEphA4-SEAP-His as 100% [4] [%]
133 (antibody, V domains shown, synthetic humanized antibody heavy chain variable region sequence; synthetic humanized antibody light chain variable region sequence) VH: QVQLVQSGSELKKPGASVKVSCKASGYTFTDYSMHWVRQAPGQGLEWMGWINTETGEPTYAQGFTGRFVFSLDTSVSTAYLQISSLKAEDTAVYYCARIPLYYYGSRYWYFDVWGQGTTVTVSS VL: EIVMTQSPATLSVSPGERATLSCRASENIYRNLAWYQQKPGQSPRLLIYAATNLADGIPARFSGSGSGTEYTLTISSLQSEDFAVYYCQHFWGTPWTFGQGTKVEIK	4.9	4.6	4.6	100
75 (antibody, synthetic humanized antibody heavy chain variable region sequence; synthetic humanized antibody light chain variable region sequence; synthetic antibody constant region sequence) VH: QVQLVQSGSELKKPGASVKVSCKASGYTFTDYSMHWVRQAPGQGLEWMGWINTETGEPTYAQGFTGRFVFSLDTSVSTAYLQISSLKAEDTAVYYCARIPLYYYGSRYWYFDVWGQGTTVTVSS VL: DIQMTQSPSSLSASVGDRVTITCRASENIYRNLAWYQQKPGKAPKLLVYAATNLADGVPSRFSGSGSGTDYTLTISSLQPEDFATYYCQHFWGTPWTFGQGTKVEIK ASTKGPSVFPLAPSSKSTSGGTAALGCLVKDYFPEPVTVSWNSGALTSGVHTFPAVLQSSGLYSLSSVVTVPSSSLGTQTYICNVNHKPSNTKVDKRVEPKSCDKTHTCPPCPAPPAAAPSVFLFPPKPKDTLMISRTPEVTCVVVDVSHEDPEVQFNWYVDGVEVHNAKTKPREEQFNSTFRVVSVLTVVHQDWLNGKEYKCKVSNKGLPAPIEKTISKTKGQPREPQVYTLPPSREEMTKNQVSLTCLVKGFYPSDIAVEWESNGQPENNYKTTPPMLDSDGSFFLYSKLTVDKSRWQQGNVFSCSVMHEALHNHYTQKSLSLSPG	4.7	4.5	4.4	100
67 (antibody, V domains shown, synthetic humanized antibody heavy chain variable region sequence; synthetic humanized antibody light chain variable region sequence) VH: QIQLVQSGSELKKPGASVKVSCKASGYTFTDYSMHWVRQAPGQGLKWMGWINTETGEPTYAQGFTGRFVFSLDTSVSTAYLQISSLKAEDTAVYYCARIPLYYYGSRYWYFDVWGQGTTVTVSS VL: DIQMTQSPSSLSASVGDRVTITCRASENIYRNLAWYQQKPGKAPKLLVYAATNLADGVPSRFSGSGSGTDYTLTISSLQPEDFATYYCQHFWGTPWTFGQGTKVEIK	4.6	4.7	4.6	100
132 (antibody, V domains shown, synthetic humanized antibody heavy chain variable region sequence; synthetic humanized antibody light chain variable region sequence) VH: QIQLVQSGSELKKPGASVKVSCKASGYTFTDYSMHWVRQAPGQGLKWMGWINTETGEPTYAQGFTGRFVFSLDTSVSTAYLQISSLKAEDTAVYYCARIPLYYYGSRYWYFDVWGQGTTVTVSS VL: EIVMTQSPATLSVSPGERATLSCRASENIYRNLAWYQQKPGQSPRLLIYAATNLADGIPARFSGSGSGTEYTLTISSLQSEDFAVYYCQHFWGTPWTFGQGTKVEIK	4.8	4.7	4.8	100
134 (antibody, V domains shown, synthetic humanized antibody heavy chain variable region sequence; synthetic humanized antibody light chain variable region sequence) VH: QVQLVQSGSELKKPGASVKVSCKASGYTFTDYSMHWVRQAPGQGLKWMGWINTETGEPTYAQGFTGRFVFSLDTSVSTAYLQISSLKAEDTAVYYCARIPLYYYGSRYWYFDVWGQGTTVTVSS VL: EIVMTQSPATLSVSPGERATLSCRASENIYRNLAWYQQKPGQSPRLLIYAATNLADGIPARFSGSGSGTEYTLTISSLQSEDFAVYYCQHFWGTPWTFGQGTKVEIK	5.1	5.1	5.1	100
76 (antibody, V domains shown, synthetic humanized antibody heavy chain variable region sequence; synthetic humanized antibody light chain variable region sequence) VH: QVQLVQSGSELKKPGASVKVSCKASGYTFTDYSMHWVRQAPGQGLKWMGWINTETGEPTYAQGFTGRFVFSLDTSVSTAYLQISSLKAEDTAVYYCARIPLYYYGSRYWYFDVWGQGTTVTVSS VL: DIQMTQSPSSLSASVGDRVTITCRASENIYRNLAWYQQKPGKAPKLLVYAATNLADGVPSRFSGSGSGTDYTLTISSLQPEDFATYYCQHFWGTPWTFGQGTKVEIK	5.1	4.9	4.9	100
135 (antibody, V domains shown, synthetic humanized antibody heavy chain variable region sequence; synthetic humanized antibody light chain variable region sequence) VH: QVQLVQSGSELKKPGASVKVSCKASGYTFTDYSMHWVRQAPGQGLEWMGWINTETGEPTYADDFKGRFVFSLDTSVSTAYLQISSLKAEDTAVYYCARIPLYYYGSRYWYFDVWGQGTTVTVSS VL: EIVMTQSPATLSVSPGERATLSCRASENIYRNLAWYQQKPGQSPRLLIYAATNLADGIPARFSGSGSGTEYTLTISSLQSEDFAVYYCQHFWGTPWTFGQGTKVEIK	5.2	5.0	5.1	100
